# Assay results from patent US20100272709A1 (GENERAL HOSPITAL, published 2010).
# B1: ECFP-dynI690K fusion (other, UniProt Q05193 1-864, looked up)
# chain: MGNRGMEDLIPLVNRLQDAFSAIGQNADLDLPQIAVVGGQSAGKSSVLENFVGRDFLPRGSGIVTRRPLVLQLVNATTEYAEFLHCKGKKFTDFEEVRLEIEAETDRVTGTNKGISPVPINLRVYSPHVLNLTLVDLPGMTKVPVGDQPPDIEFQIRDMLMQFVTKENCLILAVSPANSDLANSDALKVAKEVDPQGQRTIGVITKLDLMDEGTDARDVLENKLLPLRRGYIGVVNRSQKDIDGKKDITAALAAERKFFLSHPSYRHLADRMGTPYLQKVLNQQLTNHIRDTLPGLRNKLQSQLLSIEKEVEEYKNFRPDDPARKTKALLQMVQQFAVDFEKRIEGSGDQIDTYELSGGARINRIFHERFPFELVKMEFDEKELRREISYAIKNIHGIRTGLFTPDMAFETIVKKQVKKIREPCLKCVDMVISELISTVRQCTKKLQQYPRLREEMERIVTTHIREREGRTKEQVMLLIDIELAYMNTNHEDFIGFANAQQRSNQMNKKKTSGNQDEILVIRKGWLTINNIGIMKGGSKEYWFVLTAENLSWYKDDEEKEKKYMLSVDNLKLRDVEKGFMSSKHIFALFNTEQRNVYKDYRQLELACETQEEVDSWKASFLRAGVYPERVGDKEKASETEENGSDSFMHSMDPQLERQVETIRNLVDSYMAIVNKTVRDLMPKTIMHLMKNNTKEFIFSELLANLYSCGDQNTLMEESAEQAQRRDEMLRMYHALKEALSIIGDINTTTVSTPMPPPVDDSWLQVQSVPAGRRSPTSSPTPQRRAPAVPPARPGSRGPAPGPPPAGSALGGAPPVPSRPGASPDPFGPPPQVPSRPNRAPPGVPSRSGQASPSRPESPRPPFDL
# notes: it is read as I690K; also called CFP-1690K; not shown: ECFP tag
# B2: ECFP-dynK694A fusion (other, UniProt Q05193 1-864, looked up)
# chain: MGNRGMEDLIPLVNRLQDAFSAIGQNADLDLPQIAVVGGQSAGKSSVLENFVGRDFLPRGSGIVTRRPLVLQLVNATTEYAEFLHCKGKKFTDFEEVRLEIEAETDRVTGTNKGISPVPINLRVYSPHVLNLTLVDLPGMTKVPVGDQPPDIEFQIRDMLMQFVTKENCLILAVSPANSDLANSDALKVAKEVDPQGQRTIGVITKLDLMDEGTDARDVLENKLLPLRRGYIGVVNRSQKDIDGKKDITAALAAERKFFLSHPSYRHLADRMGTPYLQKVLNQQLTNHIRDTLPGLRNKLQSQLLSIEKEVEEYKNFRPDDPARKTKALLQMVQQFAVDFEKRIEGSGDQIDTYELSGGARINRIFHERFPFELVKMEFDEKELRREISYAIKNIHGIRTGLFTPDMAFETIVKKQVKKIREPCLKCVDMVISELISTVRQCTKKLQQYPRLREEMERIVTTHIREREGRTKEQVMLLIDIELAYMNTNHEDFIGFANAQQRSNQMNKKKTSGNQDEILVIRKGWLTINNIGIMKGGSKEYWFVLTAENLSWYKDDEEKEKKYMLSVDNLKLRDVEKGFMSSKHIFALFNTEQRNVYKDYRQLELACETQEEVDSWKASFLRAGVYPERVGDKEKASETEENGSDSFMHSMDPQLERQVETIRNLVDSYMAIVNKTVRDLMPKTIMHLMINNTAEFIFSELLANLYSCGDQNTLMEESAEQAQRRDEMLRMYHALKEALSIIGDINTTTVSTPMPPPVDDSWLQVQSVPAGRRSPTSSPTPQRRAPAVPPARPGSRGPAPGPPPAGSALGGAPPVPSRPGASPDPFGPPPQVPSRPNRAPPGVPSRSGQASPSRPESPRPPFDL
# notes: also called CFP-K694A; not shown: ECFP tag
# Columns and labels:
# Assay in all cases: FLIM/FRET in live COS cells; lifetime of the ECFP donor; self-assembly
# [1] = biological target: T1, EYFP-dynamin wild type fusion (UniProt Q05193 1-864)
# T1 construct: also called YFP-WT; EYFP-dynWT; not shown: EYFP tag
# T1 sequence (looked up): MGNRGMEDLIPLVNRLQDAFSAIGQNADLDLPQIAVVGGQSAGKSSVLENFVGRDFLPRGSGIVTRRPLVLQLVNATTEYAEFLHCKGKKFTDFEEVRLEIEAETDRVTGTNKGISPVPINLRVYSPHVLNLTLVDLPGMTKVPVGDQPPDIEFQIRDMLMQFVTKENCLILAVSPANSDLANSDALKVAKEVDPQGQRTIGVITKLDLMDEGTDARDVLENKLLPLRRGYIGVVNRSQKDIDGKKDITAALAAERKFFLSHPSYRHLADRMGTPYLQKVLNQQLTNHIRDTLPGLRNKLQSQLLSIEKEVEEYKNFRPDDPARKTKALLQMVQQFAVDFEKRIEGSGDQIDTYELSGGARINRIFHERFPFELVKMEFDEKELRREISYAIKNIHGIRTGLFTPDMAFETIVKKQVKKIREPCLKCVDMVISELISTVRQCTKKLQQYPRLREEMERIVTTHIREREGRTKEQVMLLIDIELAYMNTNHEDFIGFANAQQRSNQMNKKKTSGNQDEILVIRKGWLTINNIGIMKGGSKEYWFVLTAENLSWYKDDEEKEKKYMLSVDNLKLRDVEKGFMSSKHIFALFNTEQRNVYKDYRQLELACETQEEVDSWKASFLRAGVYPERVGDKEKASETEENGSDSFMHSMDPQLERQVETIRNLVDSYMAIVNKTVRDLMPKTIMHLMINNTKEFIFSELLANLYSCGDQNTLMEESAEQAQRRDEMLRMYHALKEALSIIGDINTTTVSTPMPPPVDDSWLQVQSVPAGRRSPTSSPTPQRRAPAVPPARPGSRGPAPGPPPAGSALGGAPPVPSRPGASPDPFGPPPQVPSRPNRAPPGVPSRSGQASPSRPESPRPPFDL
# EYFP-dynI690K fusion = biological target: T2, EYFP-dynI690K fusion (UniProt Q05193 1-864)
# T2 construct: it is read as I690K; also called YFP-1690K; not shown: EYFP tag
# T2 sequence (looked up): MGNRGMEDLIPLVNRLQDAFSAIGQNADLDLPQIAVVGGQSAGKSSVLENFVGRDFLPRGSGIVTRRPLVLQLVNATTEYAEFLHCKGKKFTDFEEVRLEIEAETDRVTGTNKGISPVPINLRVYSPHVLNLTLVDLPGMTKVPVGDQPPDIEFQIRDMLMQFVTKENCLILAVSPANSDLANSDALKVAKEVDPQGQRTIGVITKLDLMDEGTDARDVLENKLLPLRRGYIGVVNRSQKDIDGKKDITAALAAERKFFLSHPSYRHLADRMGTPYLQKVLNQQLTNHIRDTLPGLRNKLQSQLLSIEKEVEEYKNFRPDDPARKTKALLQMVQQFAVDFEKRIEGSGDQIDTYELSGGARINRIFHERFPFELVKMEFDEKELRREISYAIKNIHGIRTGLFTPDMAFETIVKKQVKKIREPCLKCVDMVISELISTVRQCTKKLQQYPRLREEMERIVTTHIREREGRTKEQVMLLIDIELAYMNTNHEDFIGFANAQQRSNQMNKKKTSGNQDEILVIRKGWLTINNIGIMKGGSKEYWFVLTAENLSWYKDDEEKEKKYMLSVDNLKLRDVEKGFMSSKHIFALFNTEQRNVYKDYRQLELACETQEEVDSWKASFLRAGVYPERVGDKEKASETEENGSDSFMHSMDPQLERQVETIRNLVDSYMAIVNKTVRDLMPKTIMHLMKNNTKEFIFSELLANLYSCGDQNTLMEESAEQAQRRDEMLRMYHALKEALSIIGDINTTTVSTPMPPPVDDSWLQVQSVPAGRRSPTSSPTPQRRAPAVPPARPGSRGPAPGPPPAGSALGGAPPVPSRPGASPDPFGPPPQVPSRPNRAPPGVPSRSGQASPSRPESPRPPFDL
# EYFP-dynK694A fusion = biological target: T3, EYFP-dynK694A fusion (UniProt Q05193 1-864)
# T3 construct: also called YFP-K694A; not shown: EYFP tag
# T3 sequence (looked up): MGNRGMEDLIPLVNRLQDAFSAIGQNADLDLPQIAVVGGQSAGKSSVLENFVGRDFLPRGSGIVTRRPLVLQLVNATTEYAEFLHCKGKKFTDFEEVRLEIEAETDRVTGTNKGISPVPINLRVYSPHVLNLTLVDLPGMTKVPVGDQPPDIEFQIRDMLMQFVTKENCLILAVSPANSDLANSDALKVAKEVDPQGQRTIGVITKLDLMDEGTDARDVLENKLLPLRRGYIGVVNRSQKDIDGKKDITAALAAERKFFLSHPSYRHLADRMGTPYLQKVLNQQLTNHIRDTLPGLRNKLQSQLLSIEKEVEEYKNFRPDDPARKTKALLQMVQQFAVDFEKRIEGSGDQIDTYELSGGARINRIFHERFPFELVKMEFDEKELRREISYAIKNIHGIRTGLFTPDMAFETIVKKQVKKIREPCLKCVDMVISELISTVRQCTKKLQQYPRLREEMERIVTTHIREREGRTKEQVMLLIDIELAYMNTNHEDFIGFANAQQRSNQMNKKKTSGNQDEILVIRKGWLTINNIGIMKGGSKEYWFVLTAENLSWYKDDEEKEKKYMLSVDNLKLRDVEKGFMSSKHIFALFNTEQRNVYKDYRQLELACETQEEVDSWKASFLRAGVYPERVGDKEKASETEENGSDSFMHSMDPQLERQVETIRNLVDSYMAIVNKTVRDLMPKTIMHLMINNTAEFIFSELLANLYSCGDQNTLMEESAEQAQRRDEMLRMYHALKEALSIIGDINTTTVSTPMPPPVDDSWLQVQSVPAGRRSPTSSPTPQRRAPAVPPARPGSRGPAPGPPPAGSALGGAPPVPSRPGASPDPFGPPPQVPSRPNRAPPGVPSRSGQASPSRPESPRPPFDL
Binder,Mean Lifetime (γ1) ps [1] [ps],Mean Lifetime (γ1) ps (EYFP-dynI690K fusion) [ps],Mean Lifetime (γ1) ps (EYFP-dynK694A fusion) [ps]
B1,1110,2070,
B2,,,1300
